We go through one substance from patent US20030235863A1.

In the assay the target is FPR-GFP fusion protein (human) (UniProt P21462). The assay is described as follows: flow cytometry, LRG assembly on DCNi G beads with 30 nM FPR-GFP. (A flow cytometer gives signals particle by particle.)
Chain of FPR-GFP fusion protein (human) (P21462 other isoform, or with tags, fused parts or gaps): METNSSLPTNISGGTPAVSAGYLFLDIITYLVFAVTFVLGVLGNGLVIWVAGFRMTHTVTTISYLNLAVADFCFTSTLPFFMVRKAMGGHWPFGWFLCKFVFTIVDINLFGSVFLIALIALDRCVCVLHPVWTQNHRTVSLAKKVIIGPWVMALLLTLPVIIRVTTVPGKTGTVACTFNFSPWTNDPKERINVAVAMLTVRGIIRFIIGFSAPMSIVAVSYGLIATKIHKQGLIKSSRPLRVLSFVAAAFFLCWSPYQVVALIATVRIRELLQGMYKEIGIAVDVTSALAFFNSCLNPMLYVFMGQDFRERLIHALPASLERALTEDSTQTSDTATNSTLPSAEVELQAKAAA

Broadly, the EC50 is the midpoint of the concentration-response curve. Low values mean a more potent agent, high ones a less potent agent. Substance fML (peptide) came in with an EC50 of 5.3 µM.
